Where a chain is given by its changes, count along the chain named. Names may count otherwise. Like-named read-outs stand apart in the source and are kept apart here.
T1: human small heat shock protein HspB8, wild type (human), Q9UJY1
T1 chain: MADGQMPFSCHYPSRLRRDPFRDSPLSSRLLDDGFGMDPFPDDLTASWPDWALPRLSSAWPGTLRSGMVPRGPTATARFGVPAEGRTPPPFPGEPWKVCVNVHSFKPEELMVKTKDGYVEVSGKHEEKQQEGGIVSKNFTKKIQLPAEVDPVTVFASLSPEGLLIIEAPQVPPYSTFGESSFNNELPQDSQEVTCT

T2: human small heat shock protein HspB6, wild type (human), O14558
T2 chain: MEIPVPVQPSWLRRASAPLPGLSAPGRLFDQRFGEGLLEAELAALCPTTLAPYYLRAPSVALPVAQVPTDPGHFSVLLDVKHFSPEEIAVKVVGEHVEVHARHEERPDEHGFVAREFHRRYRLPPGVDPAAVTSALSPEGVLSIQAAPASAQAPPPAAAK

B1: human small heat shock protein HspB8, wild type, Q9UJY1 1-196 (natural protein)
chain: T1 chain
B2: R29A mutant of human HspB8 (natural protein, UniProt Q9UJY1 1-196, looked up)
chain: T1 chain with R29A
notes: HspB8, human; UniProt Q9UJY1; Arg29 of the RLFDQxFG motif replaced by Ala; Expressed from pET23b; also called R29A HspB8; source: E. coli BL21(DE3)pLysS, purified (ammonium sulfate fractionation, HiTrap Phenyl Sepharose, Superdex-200 SEC)
B3: human small heat shock protein HspB6, wild type, O14558 1-160 (natural protein)
chain: T2 chain
B4: R27A mutant of human HspB6 (natural protein, UniProt O14558 1-160, looked up)
chain: T2 chain with R27A
notes: HspB6, human; UniProt O14558; Arg27 of the RLFDQxFG motif replaced by Ala; Expressed from pET23b; also called R27A HspB6; R27A mutant of HspB6
B5: R21A mutant of human HspB4 (natural protein, UniProt P02489 1-173, looked up)
chain: MDVTIQHPWFKRTLGPFYPSALFDQFFGEGLFEYDLLPFLSSTISPYYRQSLFRTVLDSGISEVRSDRDKFVIFLDVKHFSPEDLTVKVQDDFVEIHGKHNERQDDHGYISREFHRRYRLPSNVDQSALSCSLSADGMLTFCGPKIQTGLDATHAERAIPVSREEKPTSAPSS
B6: human small heat shock protein HspB5 (alphaB-crystallin), wild type (natural protein, UniProt P02511 1-175, looked up)
chain: MDIAIHHPWIRRPFFPFHSPSRLFDQFFGEHLLESDLFPTSTSLSPFYLRPPSFLRAPSWFDTGLSEMRLEKDRFSVNLDVKHFSPEELKVKVLGDVIEVHGKHEERQDEHGFISREFHRKYRIPADVDPLTITSSLSSDGVLTVNGPRKQVSGPERTIPITREEKPAVTAAPKK
notes: HspB5 (alphaB-crystallin), human; UniProt P02511; Expressed from pET23b; The printed monomeric mass (20.2 kDa) fits the whole protein; also called αB-crystallin; wild type HspB5; source: E. coli BL21(DE3)pLysS, purified (ammonium sulfate fractionation, HiTrap Q HP, Superdex-200 SEC)
B7: R22A mutant of human HspB5 (natural protein, UniProt P02511 1-175, looked up)
chain: B6 chain with R22A
notes: HspB5 (alphaB-crystallin), human; UniProt P02511; Arg22 of the RLFDQxFG motif replaced by Ala; Expressed from pET23b; also called R22A HspB5; source: E. coli BL21(DE3)pLysS, purified (ammonium sulfate fractionation, HiTrap Q HP, Superdex-200 SEC)

What was measured:
[1] = molecular target: T1, human small heat shock protein HspB8, …; assay: SEC-SAXS; online SEC-SAXS, SWING beamline; Shodex KW404-4F; 20 mM HEPES, 150 mM NaCl, pH 7.4, 2.5 mM DTT; 5 mg/mL (230 uM) sample applied; mass from the volume of correlation; details: remark: other sources report otherwise
[2] = molecular target: T1, human small heat shock protein HspB8, …; assay: SEC; Superdex 200 HR 10/30; 20 mM Tris/acetate pH 7.6, 150 mM NaCl, 0.1 mM EDTA, 0.1 mM PMSF, 15 mM beta-mercaptoethanol; 10-120 ug protein in 100 uL loaded; apparent mass from calibration, estimated number of subunits; details: remark: other sources report otherwise
[3] = molecular target: the molecule itself; assay: as above
[4] = molecular target: the molecule itself; assay: as above; remark: listed apart in the source
[5] = molecular target: T2, human small heat shock protein HspB6, …; assay: as above; details: remark: other sources report otherwise

Binder | stoichiometry N [4] | further results
B1 | – | stoichiometry N [1]: 2 monomers; stoichiometry N [2]: 2 monomers
B2 | ~3 monomers | stoichiometry N [3]: 4 monomers
B3 | – | stoichiometry N [5]: 3 monomers
B4 | ~3 monomers | –
B5 | ~30 monomers | –
B6 | ~27 monomers | –
B7 | ~23 monomers | –
